Measurements: paper PMC7004355 (PLoS ONE, 2020)

Experiments:
[1] = substrate: NCCC[C@H](N)C(=O)O; test: purified protein; details: 50 mM Tris pH 8.5, 20 °C, 20 mM NaCl, carbamoyl phosphate 5 mM
[2] = molecular target: the molecule itself; test: SEC-SAXS; in-line SEC-SAXS on a Superdex 200 5/150 GL column; enzyme at 4.3-5.5 mg/mL; apo state, and after incubation with 5 mM CP or 10 mM ORN; self-association of the enzyme (trimer)
[3] = substrate: NC(=O)OP(=O)(O)O; test: purified protein; type: biochemical, Escherichia coli; details: 50 mM Tris pH 8.5, 20 °C, 20 mM NaCl, ornithine 3 mM

Protein	Km [1] [µM]	kcat [1] [s⁻¹]	kcat/Km [1] [M⁻¹ s⁻¹]	binding result [2]	Km [3] [µM]	kcat [3] [s⁻¹]	kcat/Km [3] [M⁻¹ s⁻¹]	stoichiometry N [2]
Escherichia coli ornithine transcarbamoylase (OTC) variant Y160S, His-tagged (enzyme, E. coli, Anabolic ornithine transcarbamoylase of E. coli, argI gene, 333-residue subunit; Made by site-directed mutagenesis of the ASKA pCA24N plasmid; 6x-His tag not cleaved; source: E. coli BL21 (DE3) Tuner, purified (HisTrap FF, Superdex 200 SEC)) SGFYHKHFLKLLDFTPAELNSLLQLAAKLKADKKSGKEEAKLTGKNIALIFEKDSTRTRCSFEVAAYDQGARVTYLGPSGSQIGHKESIKDTARVLGRMYDGIQYRGYGQEIVETLAEYASVPVWNGLTNEFHPTQLLADLLTMQEHLPGKAFNEMTLVSAGDARNNMGNSMLEAAALTGLDLRLVAPQACWPEAALVTECRALAQQNGGNITLTEDVAKGVEGADFIYTDVWVSMGEAKEKWAERIALLREYQVNSKMMQLTGNPEVKFLHCLPAFHDDQTTLGKKMAEEFGLHGGMEVTDEVFESAASIVFDQAENRMHTIKAVMVATLSK	7300 ± 2000	410	61000	binds	–	–	–	–
Escherichia coli ornithine transcarbamoylase (OTC) variant Y229F, His-tagged (enzyme, E. coli, Anabolic ornithine transcarbamoylase of E. coli, argI gene, 333-residue subunit; Made by site-directed mutagenesis of the ASKA pCA24N plasmid; 6x-His tag not cleaved; source: E. coli BL21 (DE3) Tuner, purified (HisTrap FF, Superdex 200 SEC)) SGFYHKHFLKLLDFTPAELNSLLQLAAKLKADKKSGKEEAKLTGKNIALIFEKDSTRTRCSFEVAAYDQGARVTYLGPSGSQIGHKESIKDTARVLGRMYDGIQYRGYGQEIVETLAEYASVPVWNGLTNEFHPTQLLADLLTMQEHLPGKAFNEMTLVYAGDARNNMGNSMLEAAALTGLDLRLVAPQACWPEAALVTECRALAQQNGGNITLTEDVAKGVEGADFIFTDVWVSMGEAKEKWAERIALLREYQVNSKMMQLTGNPEVKFLHCLPAFHDDQTTLGKKMAEEFGLHGGMEVTDEVFESAASIVFDQAENRMHTIKAVMVATLSK	–	–	–	binds	–	–	–	–
OTC (E. coli ornithine transcarbamoylase, argI) (Escherichia coli K-12; E300Q) (protein, full length, uncleaved 6xHis tag, pCA24N ASKA clone, expressed in BL21(DE3) Tuner; homotrimer of 333-residue subunits) SGFYHKHFLKLLDFTPAELNSLLQLAAKLKADKKSGKEEAKLTGKNIALIFEKDSTRTRCSFEVAAYDQGARVTYLGPSGSQIGHKESIKDTARVLGRMYDGIQYRGYGQEIVETLAEYASVPVWNGLTNEFHPTQLLADLLTMQEHLPGKAFNEMTLVYAGDARNNMGNSMLEAAALTGLDLRLVAPQACWPEAALVTECRALAQQNGGNITLTEDVAKGVEGADFIYTDVWVSMGEAKEKWAERIALLREYQVNSKMMQLTGNPEVKFLHCLPAFHDDQTTLGKKMAEEFGLHGGMQVTDEVFESAASIVFDQAENRMHTIKAVMVATLSK	330 ± 100	5.1	16000	–	340 ± 110	4.6 ± 1	14000 ± 3300	–
Escherichia coli ornithine transcarbamoylase (OTC) variant Q104L, His-tagged (enzyme, E. coli, Anabolic ornithine transcarbamoylase of E. coli, argI gene, 333-residue subunit; Made by site-directed mutagenesis of the ASKA pCA24N plasmid; 6x-His tag not cleaved; also called negative control; source: E. coli BL21 (DE3) Tuner, purified (HisTrap FF, Superdex 200 SEC)) SGFYHKHFLKLLDFTPAELNSLLQLAAKLKADKKSGKEEAKLTGKNIALIFEKDSTRTRCSFEVAAYDQGARVTYLGPSGSQIGHKESIKDTARVLGRMYDGILYRGYGQEIVETLAEYASVPVWNGLTNEFHPTQLLADLLTMQEHLPGKAFNEMTLVYAGDARNNMGNSMLEAAALTGLDLRLVAPQACWPEAALVTECRALAQQNGGNITLTEDVAKGVEGADFIYTDVWVSMGEAKEKWAERIALLREYQVNSKMMQLTGNPEVKFLHCLPAFHDDQTTLGKKMAEEFGLHGGMEVTDEVFESAASIVFDQAENRMHTIKAVMVATLSK	–	–	–	binds	–	–	–	–
Escherichia coli ornithine transcarbamoylase (OTC), wild type, His-tagged (enzyme, E. coli, Anabolic ornithine transcarbamoylase of E. coli, argI gene, 333-residue subunit; Expressed from the ASKA plasmid pCA24N; also called WT OTC; anabolic OTC; source: E. coli BL21 (DE3) Tuner, purified (HisTrap FF, Superdex 200 SEC)) SGFYHKHFLKLLDFTPAELNSLLQLAAKLKADKKSGKEEAKLTGKNIALIFEKDSTRTRCSFEVAAYDQGARVTYLGPSGSQIGHKESIKDTARVLGRMYDGIQYRGYGQEIVETLAEYASVPVWNGLTNEFHPTQLLADLLTMQEHLPGKAFNEMTLVYAGDARNNMGNSMLEAAALTGLDLRLVAPQACWPEAALVTECRALAQQNGGNITLTEDVAKGVEGADFIYTDVWVSMGEAKEKWAERIALLREYQVNSKMMQLTGNPEVKFLHCLPAFHDDQTTLGKKMAEEFGLHGGMEVTDEVFESAASIVFDQAENRMHTIKAVMVATLSK	530 ± 55	440	830000	–	270 ± 34	410 ± 20	1.5e+06 ± 130000	3
Escherichia coli ornithine transcarbamoylase (OTC) variant S61A, His-tagged (enzyme, E. coli, Anabolic ornithine transcarbamoylase of E. coli, argI gene, 333-residue subunit; Made by site-directed mutagenesis of the ASKA pCA24N plasmid; 6x-His tag not cleaved; also called negative control; source: E. coli BL21 (DE3) Tuner, purified (HisTrap FF, Superdex 200 SEC)) SGFYHKHFLKLLDFTPAELNSLLQLAAKLKADKKSGKEEAKLTGKNIALIFEKDSTRTRCAFEVAAYDQGARVTYLGPSGSQIGHKESIKDTARVLGRMYDGIQYRGYGQEIVETLAEYASVPVWNGLTNEFHPTQLLADLLTMQEHLPGKAFNEMTLVYAGDARNNMGNSMLEAAALTGLDLRLVAPQACWPEAALVTECRALAQQNGGNITLTEDVAKGVEGADFIYTDVWVSMGEAKEKWAERIALLREYQVNSKMMQLTGNPEVKFLHCLPAFHDDQTTLGKKMAEEFGLHGGMEVTDEVFESAASIVFDQAENRMHTIKAVMVATLSK	–	–	–	binds	–	–	–	–
Escherichia coli ornithine transcarbamoylase (OTC) variant Y160F, His-tagged (enzyme, E. coli, Anabolic ornithine transcarbamoylase of E. coli, argI gene, 333-residue subunit; Made by site-directed mutagenesis of the ASKA pCA24N plasmid; 6x-His tag not cleaved; source: E. coli BL21 (DE3) Tuner, purified (HisTrap FF, Superdex 200 SEC)) SGFYHKHFLKLLDFTPAELNSLLQLAAKLKADKKSGKEEAKLTGKNIALIFEKDSTRTRCSFEVAAYDQGARVTYLGPSGSQIGHKESIKDTARVLGRMYDGIQYRGYGQEIVETLAEYASVPVWNGLTNEFHPTQLLADLLTMQEHLPGKAFNEMTLVFAGDARNNMGNSMLEAAALTGLDLRLVAPQACWPEAALVTECRALAQQNGGNITLTEDVAKGVEGADFIYTDVWVSMGEAKEKWAERIALLREYQVNSKMMQLTGNPEVKFLHCLPAFHDDQTTLGKKMAEEFGLHGGMEVTDEVFESAASIVFDQAENRMHTIKAVMVATLSK	–	–	–	binds	–	–	–	–
